Measured values: the NTF2 design screens of Basanta et al. (2020)

Assay: protease stability score; higher = more stable; yeast display proteolysis, trypsin and chymotrypsin;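 also: log10 excess protease needed over predicted unfolded state with 0 meaning unfolded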
With “DEKEVQKVLETMAKMFVNGNNEEVKKLGHDDIQVQYGDEEKHGPDAMVDFIKKYQDLGAEVEYKHLKVEGNEVEVDVEATLGGKTVRYKVKYEATGHKVHRVEVKYTDEAKDAIKKG” the protease stability score was 0.657.
“DEEDAEKILRTAAKAVENGDHKKLVDLGKDGVEYQLADEKAHGPEVMKKVLDYQRKLGVRVELKEVHHEGNKVVTVLVYYHGNTKLEVQIHATADGGKIDRVEVKVPETLKKQLKHG” showed a protease stability score of 0.137.
“DEDQEDLIRRLIKALDTGDPEQARKNADKDARFNYGDQEIHGMQTFVDDLEKRKRQMHVRITRIDVRVHNGQAKQSVNEVTNHNGRPQSRVQDRRIQITNGRVKKMENDDDG” showed a protease stability score of -0.316.
With “DEDKLDHLARKAAEIMVQGDPDKFRDMFDPNAKLRYGDKELRGREEADKAIEEMQKRVDSSDVEDITAHNGRANAVLVLNHNGRHKRFVLVVDVRNGRATKASMHDD” the protease stability score was -0.062.
With “DSDKIDNVVKTIMHDLRKGNPERVMKNADKDVKIVVGDKRYHGRETLETLMKEMVDQADHIQFHSVNIRGEKVVVVAVLQHNGVNVDVQFNMEIDNGRATKVELKVRNPEQQKKFDS” the protease stability score was 0.583.
“DEHKVKEAAERFVRMLEHNDPDTLSKLFDPNVTMQVGDKEYQGRETLMRLVKELKKRVDHIEVKQVHASNGRVNVRMTIQFNGKRFEFTMHIVLHDGRVDTLSLDVRNEEEKRRVDS” gave a protease stability score of 1.31.
Sequence “DEENMEVYQTQLKVEQRGNEEELVKLIDPNAEVRIGDKQVKGRENIAHTIKQETDKMERKIESLNLSAHNGEIHIKATVVQTHNGEPRTDSYVMRIHLHNGRLKQMDVHKSN” has a protease stability score of 0.541.
In the case of “DDTMIRRLTEWWRAFEHNNSNQMKELADPNAKFSYGDKTVTGMDDIAKQLVNEAREMRVEIRHMKVEQHGEKVRVDFEYEIRDNGRPHTNRVVLEAHQHNGKIQSVQVKDDR”, the protease stability score is reported as 0.356.
“DEDKEAEKLVKEMQENQRQGDEEKWANLFDEDAHFRIGDKHLHGRQDLQDNVRKWRHNYDHLSVRMKDLKHDGDKARLHVVITQRHNGKNDSMTVDIVIVKQNGRVRIKNFQAP” gave a protease stability score of 0.513.
“DEEDLNKFAEHVVHALQEGNPDQLMHLADENVKMTVGDTSVEGKDQVSEYWTEMKERIDHFSYTSVDVRGNTIEIRFTADVDGRELRQVLIIEVRNGRAKSISIEDG” gave a protease stability score of 1.88.
For “DEEKNQELLHHWLKQFSHGNTENLRKNVDKDVRVRVGDKVFNGRETAMRHWSEQVKQVDHVQINHVEVDGDSARADVVYVVNGRERRFEREATIKGDKFKEIEYRTN”, the protease stability score was -0.248.
With “DENHKVRELVDRFKEAYDSNDPDQYQNQFDKDATVTVGDKVFHGDEQAKQMAEDIMRNVDSFSISLKRVRVRGDKVRVSFKVVNNRNGRHKTIHVTAVFVFDNGRLRAKSWHFQ” the protease stability score was 0.73.
In the case of “DESLADVFRRLLEAYRNGDEQKLRDNVDPNAKFNIGDKRFSGREQFARDMHKERKEIRVSIQLHEYDNQGEDVDFTFQFSAEVNGEPVHDTVRVEVHAHNGKIKRVHMHMSEKFQHQLRG”, the protease stability score is reported as -0.027.
In the case of “DDEDDKRLADEFNTAVKQGDEDQLKNLMDEDATAEIGDKQLTGRENAAKHLVTLARHADHIQVNSVRVHDGRIRIDMRMIFNGQDHHYDIKIEVHNGRIKRMTVRNK”, the protease stability score is reported as 1.6.
Work on “DEEKILKIIDRAVKAIQNGNEEEIRKLGMPNGEAQVGNDRNHGQDALVVMVKMYQKLGNEFEYKEKREEGDQVTTVVQVTFGGTTVEYEVNVQAEGGHIKRWEVRVDETFMKHVEKS” yielded a protease stability score of -0.125.
For “DEEVKTVAEEFWKAIQTGDPDQVKTQVDENARMRVGDKSIHGSDNISTDVERERKEIKVKYNIQDIRASNGTVRVRMDVRRNHNGKPREHEQTMTQTIDNGKIQDVNISTDG”, the protease stability score was -0.46.
“DEKVLKALHDVFRAQEHGDERRAMRNLDPNVKIDVGDEQYHGRESWARRIVQERRDMKVEYHKIDFDDRGDKAKITARYEFTENGDPRHVTIDMEAKATNGKVTTMEQRDDG” showed a protease stability score of -0.103.
“DDDHLRKVEDFMRAQLEGDPDRLKQLADPNVRMNVGEKKVHGMQDIATEQASTYKTARYEIKSLDSKTEGDKVVITMRVQADNNGQPHDETFHLKARLENGKIVEQSKENDG” gave a protease stability score of -0.529.
With “DERKEAKKWLDRLNKALHTGDSDKLKDMVDKDVRFNIGDKEIHGREQYVKHVQTRAEQIDDVQIHIHSIHVSGDEIVLTYHVVYNVNGRQESDVFNLVMVKNNGRLVVRSVTKG” the protease stability score was -0.012.
In the case of “DHRAEEAFRRWEEALKTGDPDQAKEQVDPNARFEYGDESIRGMDNVQKWLRTQMEKQRIDVKVKDVKTRPGHVEISAHVVWEHNGTPNSATFVQQNTATGDDVKHVKVQEHK”, the protease stability score is reported as -0.27.
Sequence “DEREEAKRLWERFVRAIQHGDERRLRELLPPDVRVTVGDKEYHGRDQAVTWLQELAERVDHVSFDVRHIEVENGRLDIDAKVQMENNGRQHSFTLRIIADDHNGKFVIRSITYQ” has a protease stability score of 1.84.
For “DEDEERKVVHSIMHALEKGDEQKAVDLMDPNVKVIIGDKEISGRERVRDVAQELRKRIDHLRVKTLDVKNGQARAVAEVEHNGQERRIEFNMQLDNGRVKDMRIQER”, the protease stability score was 1.09.
In the case of “DDKDIQEIAHEINHAWEEGDSKRFADLLSENARVDVGDKDYEGREFNKKWMKDIRDRVDHLEIDHVSAKGNTVEVTMVMNINGRNATVVVEYTFHNGQVRHAQLKFTSEEDKRKFHG”, the protease stability score is reported as 0.453.
With “DDEQRKDLAHDFLHAWKKGDEKLFDNLVDENVSAQYGDKTYHGRESISTFVRNYKKRADHFRVHDMQLSNGSVRMDVEAEVNGVDVRVTFHVFFHNGRVKSLQQDFTDEDVKRRHES” the protease stability score was 0.604.
“DQKVNEFFKHVVKVEENGDTDKYRDNFDKDARAVYGDKRVTGNDELADTMRRTRHDMKYDVRSMDVQVRNGRVTVDVKVDVRVDGKPHSLKETIEMEVDNGKVKEVRVDFDPDQRRKVER” showed a protease stability score of -0.188.
With “DSEKIKDVARQLVRQIEENNPDEIVKLLDPNARADYGDKRISGHEKIADELRKFHERADRIRVETVEVHNGRIVIDLHVNINGRMQRFHVFADLHNGKIKRIEFQTG” the protease stability score was 1.54.
Sequence “DERDATNAIESVMKAIKEGDPDQMQKNADPNARLQIGDKVYHGRETIVTLLKELAHRVDHLQIDSMHQHNGRVTVSILVQVNGQRRTVNIEAQARDGRLKNMHIDPEFWRQLER” has a protease stability score of 0.781.
“DEEEVSRILKKVLTAVRKNDPDTLMRLADKNARFHYGDRTYRGREQARRWMEDVRTHADHARINSFTVTGNKARADIRFDINGEERRVDMVIVVHNGKIHDLVVEDR” showed a protease stability score of 1.3.
“DHTKEARQVRRFVHALETGDPDRAASQLDKNAKVTVGDKRVHGRENVRTLMQEFIREADHFRLRDMRDDGEKFNLLIEFEVNGKRLRMHIDIVISNGTMKVVRFDPNVVKRMEN” showed a protease stability score of 0.144.
For “DDENNKILEEYLKAEQTNDPDRAVELMRDDVRMQVGDHRVHGREEVRKRIHQIKDTMRVQIDDLRVTVKGESVVANLDAQVRINGQPVRFRASVRADFHNGKIVHHRVHISEEQQERLKK”, the protease stability score was 0.272.
For “DEERMHQLEKLFRTNNFEEFAKQADKDVTAKVGNETYTGREDMEKFARRLREQVDSIHYDRVEVKGDKFKADAQFDFNGKRVRFTVEVEFHNGKLQHMRMQATTHELEETLAKLLS”, the protease stability score was 1.41.
With “DHEEVHKLAKKLAEAVVNGNEDRIRKFLKPDVEYKNIDEEYQGKQVAEVIVKTIKTKGVRLKVEEVKVEGDTVEAQYVFQVNGTKVTAHVRAEAKGGRVDKWQVHISDTAKKLRKEG” the protease stability score was 1.15.
Work on “DENDTARKIIKTLLDIMREGDEDKLRDQMDPNVRADVGDKTVHGREHAAKFLAHIVKRADHISITLKSLHNHNGRLRMQAEVRIVHNGRTERVTLEMVFRDHNGKLLIERMKYG” yielded a protease stability score of 2.51.
“DEKKVKELIDQVVEAIQKGDVEHLLKLGKPDVTFTVGDVEIRGLEHLKKYYKQVKDDGAELHVKKVEVKGNTAQVHYDMKYGGTKATVTVNIEAKDHKVDRAEAKMDKDYLKYVRDG” showed a protease stability score of 0.644.
With “DEKLLDLLEKILQAEHENDPDQARELADPNVKYRYGDKSVNGRHEWVKDLERKTQKIKVEYKRIQVDAKGDKAHANVHMTVNHNGKPDKVLMEIVVRAHNGKVTELTVHEDK” the protease stability score was 0.041.
Work on “DEEAHKLATKWLRAVQTGDPDTVKELVDPNVRAVYGDQEITGRERLADEIKKTRDHSRVELESVRVTVHGDKVRAQADVRVNTNGKPERNTVDVTIVIHNGRIKRMHMQKSQ” yielded a protease stability score of 0.7.
Work on “DEENVRLARHYADAEARGDHDTIVELLDPNAKVDVGDHEVTGDEHVREELKKKHNQWRAELKDVKASVRGDKLRLKITFVVHINGRPSEQTIDARADIKDGRFKSFSVTIDPQEERHNES” yielded a protease stability score of 0.395.
“DREAKNVFEKLTKAFETGNEDDMRKLLDEDVRFNIGDREVHGREQAVEDLKRKRTQMRVDIHHVDQQNEPNRLSVNVRMVVEHNGRPRDVQRHAVFDVHNGRIKSVKEKDRQ” gave a protease stability score of -0.238.
With “DEDFDTQLEEMLKNILNGNTEEIDKYADPNVKLEVGDHEYHGREHVKENWKEELDHMDVEVKSVHISARDGRAHVNLEFVVNIDGRPRHVKVREEFVWKNGKLKRANRHFSEEVKRQLER” the protease stability score was 0.677.
For “DTHKLREHARSMVEAMEDGDPQHLAKLMDENAKVTVGDKDVHGEEQAKRWAREWQKRFDHVEVDDLKVDNGRIRVKFHAQVNGREIFVIVKVEVRNGRIRSLSLEVRDEHVEKRLQD”, the protease stability score was 0.909.
Sequence “DEEKKARQLLKRWLRAVSQNDPKKLSEQMDPNARVEYGDKELHGMHQIENWLREQLKHIDHIEIDVKDMTVNGNEAQVQFRFVNRHNGKEDTKEARMQAELHNGTVKVRRIRYS” has a protease stability score of 0.389.
“DETHKAKEMLKEFHTAVSKGDEDRYSNLLDENVHITYGDKTVHGREEAVKLFTELQERADHVDVDVVSVDVKGETVKARIRINFVYDGREDRHEFTLIAIVDNGRFVIKSIIQK” showed a protease stability score of 1.22.
“DEEDERKFAEEFHKVLQTNNEEEIRKMFDPNVTAHVGDKRIHGREEVATVIARLARRADHIRLEHVEVENGRITMTLRADVDGRDVQFRVILTVRNGVVQEVQFDYTSEDQFREIQK” showed a protease stability score of 1.59.
For “DEDDQERKLRKIAKNITKGDKTSLLKMVDKDAKASVGDKTVEGDNQLKRVMEERTRRIDHLDLKDVKVTGNTLVVHYVIHHNGKNKHQVAFVVLDNGRIKSMSFHDG”, the protease stability score was -0.08.
With “DDEVQEVAEQWMRAFNTGDPDTFKDLLDKDVRVQYGDKRLSGKKTLANELQHQKEHQRFKVQHVDIKVTGNKAEINFTLVMDVNGKPVHYTVRANLDVHNGKVKEARFTMDPNTLSKMKR” the protease stability score was -0.24.
“DEDQLKVALKAIRAQNNNNPDELLKLLDENVRLQYGDKTVHGREEVKEMIKHWLSHWRWKIDVRRYSVHNGVARIEALVTINVNGKPQTFTVVIHVRAENGRIKEMHYHFDEEDQEKIRS” gave a protease stability score of 1.37.
With “DEDRRAKELAERLDEALRTGDEERLQRLFDKDVRFDIGDKTIHGRTEAARQMVTHANRADHVHMKVTDLKRHGSRIVVVVHFRQNINGKKDSRDVKIEVKLEGDRIKVVRATYR” the protease stability score was 0.888.
With “DEEARKLVHRILEAWKHGDEEHFKEQFDPNVDVDVGDKRYHGRHTIATRVQRELDEIDIRIEVHHITVEGDRADMDATVVLNINGKPVHVRVTWVFQITNGVAVYMQLRVSEDQRREQES” the protease stability score was 1.15.
Sequence “DEEHNQRLAERVAKVVQSGDEEEFEKQADPNVKVVYGDKTYHGNSEAMNAIKQIRKQADTVSVQSVDVHGDTARIQMRFDVNGKDRIVKVTVQVDNGRVVEVRFHET” has a protease stability score of 1.12.
Work on “DESLHRWYERLQEALEHGDEDRLRKNADKDVQVDVGDKRVHGSEHYAHELVRESREMDFHIHRMEVSVTGNRITVDYVYDREHNGTPQSKRVQERYQAHNGKLKRASVQETD” yielded a protease stability score of -0.093.
